First the molecules themselves.
B1: human connexin36 (Cx36) (other, UniProt Q9UKL4 1-321, looked up)
chain: MGEWTILERLLEAAVQQHSTMIGRILLTVVVIFRILIVAIVGETVYDDEQTMFVCNTLQPGCNQACYDRAFPISHIRYWVFQIIMVCTPSLCFITYSVHQSAKQRERRYSTVFLALDRDPPESIGGPGGTGGGGSGGGKREDKKLQNAIVNGVLQNTENTSKETEPDCLEVKELTPHPSGLRTASKSKLRRQEGISRFYIIQVVFRNALEIGFLVGQYFLYGFSVPGLYECNRYPCIKEVECYVSRPTEKTVFLVFMFAVSGICVVLNLAELNHLGWRKIKLAVRGAQAKRKSIYEIRNKDLPRVSVPNFGRTQSSDSAYV
notes: whole, on cells; Hemichannel expressed in HEK 293FT cells for FETCH; also called GJD2; not shown: C-terminal fluorescent protein fusion (mEmerald or RFP670 in FETCH)

The target in one series is T1, human connexin45 (Cx45) (human, UniProt P36383 1-396).
T1 construct: whole, on cells; Hemichannel expressed in HEK 293FT cells for FETCH; non-docking benchmark partner of Cx36; also called GJC1; not shown: C-terminal fluorescent protein fusion (mEmerald or RFP670 in FETCH)
T1 sequence (P36383 whole entry, the tested form may be a part): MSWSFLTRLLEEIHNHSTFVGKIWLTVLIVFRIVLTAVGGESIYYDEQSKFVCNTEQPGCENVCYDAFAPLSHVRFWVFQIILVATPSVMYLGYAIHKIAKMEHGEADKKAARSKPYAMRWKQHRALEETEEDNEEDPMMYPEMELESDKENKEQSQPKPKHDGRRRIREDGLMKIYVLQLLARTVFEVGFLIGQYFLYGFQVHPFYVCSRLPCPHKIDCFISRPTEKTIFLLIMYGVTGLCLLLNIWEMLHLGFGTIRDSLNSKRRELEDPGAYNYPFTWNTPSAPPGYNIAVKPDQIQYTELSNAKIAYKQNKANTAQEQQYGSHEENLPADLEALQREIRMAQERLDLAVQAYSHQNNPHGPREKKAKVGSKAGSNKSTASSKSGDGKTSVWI
Put plainly: FETCH (flow cytometry of co-plated HEK 293FT cells), benchmark pair. The procedure:
(§1) Complete FETCH methodology is outlined in Ransey et. al. 2021 (Ransey E, et al. (2021) BioRxiv). Briefly, replica multi-well plates with HEK 293FT cells were transfected with either of the two connexin proteins being evaluated for docking. Following a transfection incubation period, experimental counterparts were combined, replated, and further incubated for about 20 hr to about 24 hrs, allowing cells to make contacts and potentially generate connexosomes. Co-plated samples were trypsinized, fixed in suspension and analyzed via flow cytometry. Flow cytometry data was processed with two selection gates prior to their fluorescence evaluation. First, putative HEK cells were identified by evaluating sample forward vs. side scatter area. Next, single cells were identified as the putative cells that maintained a linear correlation of forward scatter height to forward scatter area. Finally, the dual fluorescence (mEmerald vs. RFP670) profiles of each sample was generated, and the FETCH score was defined as the proportion of dual-labeled fluorescent cells that develop in a co-plated sample.
For screening analysis, five FETCH replicates were obtained for each condition (mutation). […] To quantitatively determine whether a connexin pair docked, FETCH scores were determined for the dual fluorescence of cells under conditions where docking was not anticipated. […]

Series [1] concerns the target T2, human connexin43 (Cx43) (human, UniProt P17302 2-382).
T2 construct: whole, on cells; Hemichannel expressed in HEK 293FT cells for FETCH; also called GJA1; not shown: C-terminal fluorescent protein fusion (mEmerald or RFP670 in FETCH)
Description: heterotypic FETCH. The procedure: as §1

The series “homotypic FETCH screen” concerns the molecule itself. Description: homotypic FETCH screen. The procedure:
as §1
(§2) For screening analysis, five FETCH replicates were obtained for each condition (mutation). These scores were benchmarked against scores for Cx36 and Cx45 (FETCH=1.2±0.1%, n=54 replicates). To quantitatively determine whether a connexin pair docked, FETCH scores were determined for the dual fluorescence of cells under conditions where docking was not anticipated. These conditions included pairs of connexins previously established to not show docking: (i) Cx36 and Cx45 (FETCH=0.7±0.0%, n=59 replicates), (ii) homotypic Cx23 (FETCH=0.9±0.4%, n=6 previously collected replicates (Ransey E, et al. (2021) BioRxiv), and (iii) Cx36 and Cx43 (FETCH=1.2±0.2%, n=10 previously collected replicates (Ransey E, et al. (2021) BioRxiv), and under conditions for which cells were transfected with cytoplasmic fluorophores rather than tagged connexins (FETCH=4.4±0.6%, n=17 previously collected replicates (Ransey E, et al. (2021) BioRxiv).

Series [2] concerns the molecule itself. Put plainly: FETCH (flow cytometry, % dual-labelled HEK 293FT cells), homotypic. The procedure: as §1
The series “human connexin36 (Cx36)” concerns the target B1. Description: FETCH (flow cytometry, % dual-labelled HEK 293FT cells), heterotypic. The protocol: as §1
Series [3] concerns the target T2, human connexin43 (Cx43). Description: FETCH (flow cytometry, % dual-labelled HEK 293FT cells), heterotypic, n=6. The procedure:
as §1

Series [4] has as its target T3, Cx35E224H (Morone americana Cx35 mutant E224H) (Morone americana).
T3 construct: Extracellular loop mutant of the screening library; not shown: C-terminal fluorescent protein fusion (mEmerald or RFP670 in FETCH)
T3 chain: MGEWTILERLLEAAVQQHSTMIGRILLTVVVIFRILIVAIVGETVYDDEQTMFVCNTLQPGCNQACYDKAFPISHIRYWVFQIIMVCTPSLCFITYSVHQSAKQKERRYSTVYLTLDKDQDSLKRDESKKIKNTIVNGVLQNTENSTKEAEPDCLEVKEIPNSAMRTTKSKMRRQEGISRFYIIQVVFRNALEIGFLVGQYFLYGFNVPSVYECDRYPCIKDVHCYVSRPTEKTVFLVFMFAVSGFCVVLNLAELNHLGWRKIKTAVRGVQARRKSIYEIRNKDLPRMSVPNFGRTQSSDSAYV
Put plainly: heterotypic FETCH; score higher than for the wild type Cx34.7WT/Cx35WT pair. The procedure: as §1, §2

Series [5] addresses T4, Cx35E224K (Morone americana Cx35 mutant E224K) (Morone americana).
T4 construct: Extracellular loop mutant of the screening library; not shown: C-terminal fluorescent protein fusion (mEmerald or RFP670 in FETCH)
T4 chain: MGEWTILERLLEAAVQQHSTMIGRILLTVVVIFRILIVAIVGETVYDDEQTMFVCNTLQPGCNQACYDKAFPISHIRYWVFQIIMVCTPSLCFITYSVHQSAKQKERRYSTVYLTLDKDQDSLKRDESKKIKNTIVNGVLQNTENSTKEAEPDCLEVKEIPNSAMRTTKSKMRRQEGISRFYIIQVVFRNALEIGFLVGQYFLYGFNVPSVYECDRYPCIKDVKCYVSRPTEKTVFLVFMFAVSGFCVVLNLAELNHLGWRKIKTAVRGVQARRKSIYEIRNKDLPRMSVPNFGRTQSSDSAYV
The description is as above. The protocol:
as §1, §2

Series [6] addresses T5, Cx35E224R (Morone americana Cx35 mutant E224R) (Morone americana).
T5 construct: Extracellular loop mutant of the screening library; not shown: C-terminal fluorescent protein fusion (mEmerald or RFP670 in FETCH)
T5 chain: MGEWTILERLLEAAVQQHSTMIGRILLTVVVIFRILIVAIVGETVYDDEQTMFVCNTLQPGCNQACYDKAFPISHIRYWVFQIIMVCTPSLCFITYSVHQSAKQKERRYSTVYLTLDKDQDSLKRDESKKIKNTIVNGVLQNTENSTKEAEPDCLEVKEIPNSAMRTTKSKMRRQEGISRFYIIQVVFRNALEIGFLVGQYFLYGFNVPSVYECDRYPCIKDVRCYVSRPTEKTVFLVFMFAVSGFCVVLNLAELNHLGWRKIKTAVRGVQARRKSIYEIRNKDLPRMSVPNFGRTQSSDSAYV
The description is as above. The procedure: as §1, §2

T2 sequence (P17302 2-382): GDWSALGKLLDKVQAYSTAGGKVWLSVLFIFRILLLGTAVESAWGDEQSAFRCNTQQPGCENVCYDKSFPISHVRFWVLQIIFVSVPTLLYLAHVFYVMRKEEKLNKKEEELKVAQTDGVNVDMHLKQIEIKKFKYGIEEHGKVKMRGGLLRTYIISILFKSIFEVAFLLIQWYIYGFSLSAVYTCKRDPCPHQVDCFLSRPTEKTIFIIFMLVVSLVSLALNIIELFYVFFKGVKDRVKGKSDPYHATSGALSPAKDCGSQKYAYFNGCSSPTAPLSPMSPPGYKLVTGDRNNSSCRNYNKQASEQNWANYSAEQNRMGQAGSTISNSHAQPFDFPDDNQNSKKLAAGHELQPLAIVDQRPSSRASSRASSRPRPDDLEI

For B1, the binding result in the series with human connexin45 (Cx45) is recorded as “no binding”.

B2: Cx34.7K222Q (Morone americana Cx34.7 mutant K222Q) (other)
chain: MGEWTILERLLEAAVQQHSTMIGRILLTVVVIFRILIVAIVGETVYEDEQAMFICNTLQPGCNQACYDKAFPISHIRYWVFQIILVCTPSLCFITYSVHQSAKQKDRRYSFLYPIMERDYGGRDGARKLRNINGILVQHGGDGGGGKEEPDCLEVKEIPNAPRGLTHGKSSKVRRQEGISRFYIIQVVFRNALEIGFLAGQYFLYGFSVPGIFECDRYPCLQEVECYVSRPTEKTVFLVFMFAVSGICVVLNLAELNHLGWRKIKAAIRGVQARRKSICEIRKKDMAHLSQPPNLGRTQSSESAYV
notes: Extracellular loop mutant of the screening library; not shown: C-terminal fluorescent protein fusion (mEmerald or RFP670 in FETCH)
In the case of B2, the binding result with human connexin43 (Cx43) [1] is recorded as “no binding”; in the series “homotypic FETCH screen”, “no binding”; in [4] it was “binds”; in series [5] it was “binds”; in series [6], “binds”. Further, the FETCH score is 0.4% in [2], 22.8% in the series with human connexin36 (Cx36) and 1.3% with human connexin43 (Cx43) [3].

Source of the values: patent publication US20250186620A1 (DUKE UNIVERSITY, published 2025).
